Test in all cases: fluorescence polarisation; 25 °C; unlabeled Rb^P titrated against 1.5 nM TMR-E2F1^TD or 7.5 nM TMR-E7^LxCxE; 25 mM Tris pH 8.0, 200 mM NaCl, 1 mM DTT, 0.1% Tween-20; 2 min incubation; quadratic fit; apparent Kd for the variants, Kd for WT
Holding throughout (details): both partners purified
(In general: In fluorescence polarisation assays a small probe gives low polarisation when free and higher when bound to something large.)

One assay addresses T1, Rb^P R741C (human, UniProt P06400 380-788, R741C).
T1 construct: also called variant 68
T1 sequence (looked up): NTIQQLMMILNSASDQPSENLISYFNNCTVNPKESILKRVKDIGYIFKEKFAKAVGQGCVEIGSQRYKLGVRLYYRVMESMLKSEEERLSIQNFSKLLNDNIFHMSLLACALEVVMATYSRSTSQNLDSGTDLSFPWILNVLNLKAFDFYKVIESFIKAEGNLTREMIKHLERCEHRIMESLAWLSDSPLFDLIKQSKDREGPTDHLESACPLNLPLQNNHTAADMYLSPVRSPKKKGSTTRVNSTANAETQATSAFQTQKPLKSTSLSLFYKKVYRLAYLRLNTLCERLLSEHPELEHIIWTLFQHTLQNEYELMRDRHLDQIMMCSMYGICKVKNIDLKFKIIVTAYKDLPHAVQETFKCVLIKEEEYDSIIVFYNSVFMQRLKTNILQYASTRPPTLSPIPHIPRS

A further assay has as its target T2, Rb^P T620M (human, UniProt P06400 380-788, T620M).
T2 construct: also called variant 40
T2 sequence (looked up): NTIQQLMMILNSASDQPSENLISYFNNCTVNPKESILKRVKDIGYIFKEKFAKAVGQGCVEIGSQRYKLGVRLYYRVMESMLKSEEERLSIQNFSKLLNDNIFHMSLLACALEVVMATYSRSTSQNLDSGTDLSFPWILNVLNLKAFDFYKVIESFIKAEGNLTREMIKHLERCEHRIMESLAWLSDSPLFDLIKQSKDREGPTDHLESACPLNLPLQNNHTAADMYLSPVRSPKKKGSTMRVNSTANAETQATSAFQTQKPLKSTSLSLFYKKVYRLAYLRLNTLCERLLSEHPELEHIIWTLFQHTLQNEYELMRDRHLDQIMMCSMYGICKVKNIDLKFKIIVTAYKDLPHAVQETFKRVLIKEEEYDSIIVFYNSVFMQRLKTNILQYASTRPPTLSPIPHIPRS

The target in a further assay is T3, Rb^P S648T (human, UniProt P06400 380-788, S648T).
T3 construct: also called variant 46
T3 sequence (looked up): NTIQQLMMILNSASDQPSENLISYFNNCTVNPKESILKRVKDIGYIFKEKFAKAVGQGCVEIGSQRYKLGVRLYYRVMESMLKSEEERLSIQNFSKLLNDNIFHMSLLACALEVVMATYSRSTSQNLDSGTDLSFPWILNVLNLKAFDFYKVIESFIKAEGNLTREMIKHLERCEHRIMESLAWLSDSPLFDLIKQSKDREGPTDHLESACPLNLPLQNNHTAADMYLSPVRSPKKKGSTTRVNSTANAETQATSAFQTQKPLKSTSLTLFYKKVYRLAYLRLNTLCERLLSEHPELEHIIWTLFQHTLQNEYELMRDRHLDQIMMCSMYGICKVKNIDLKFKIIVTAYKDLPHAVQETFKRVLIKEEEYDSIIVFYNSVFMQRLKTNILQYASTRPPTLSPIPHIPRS

The target of another assay is T4, Rb^P S474R (human, UniProt P06400 380-788, S474R).
T4 construct: also called variant 13
T4 sequence (looked up): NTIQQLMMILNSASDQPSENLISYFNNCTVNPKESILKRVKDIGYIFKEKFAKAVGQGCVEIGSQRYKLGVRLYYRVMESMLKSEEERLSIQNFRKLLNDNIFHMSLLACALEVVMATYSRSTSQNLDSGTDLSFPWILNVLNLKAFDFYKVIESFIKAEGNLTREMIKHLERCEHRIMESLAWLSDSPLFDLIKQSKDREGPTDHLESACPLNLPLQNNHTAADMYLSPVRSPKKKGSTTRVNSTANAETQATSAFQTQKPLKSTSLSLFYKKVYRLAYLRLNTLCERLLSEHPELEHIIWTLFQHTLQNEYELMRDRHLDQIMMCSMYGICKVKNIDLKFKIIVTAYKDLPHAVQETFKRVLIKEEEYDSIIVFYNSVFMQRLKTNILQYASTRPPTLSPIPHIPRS

For a further assay, the target named is T5, Rb^P S534R (human, UniProt P06400 380-788, S534R).
T5 construct: also called variant 23
T5 sequence (looked up): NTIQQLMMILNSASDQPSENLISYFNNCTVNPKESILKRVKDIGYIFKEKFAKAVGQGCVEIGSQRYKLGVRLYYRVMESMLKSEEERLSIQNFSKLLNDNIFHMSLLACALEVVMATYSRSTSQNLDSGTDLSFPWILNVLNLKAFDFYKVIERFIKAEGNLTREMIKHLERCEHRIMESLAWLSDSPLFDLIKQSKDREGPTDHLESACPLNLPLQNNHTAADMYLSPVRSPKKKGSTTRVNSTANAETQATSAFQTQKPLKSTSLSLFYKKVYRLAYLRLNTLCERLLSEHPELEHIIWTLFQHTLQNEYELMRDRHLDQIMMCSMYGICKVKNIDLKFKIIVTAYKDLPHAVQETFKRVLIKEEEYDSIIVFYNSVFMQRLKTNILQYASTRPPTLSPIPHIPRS

No end group written: not given here. TMR = tetramethyl rhodamine dye

B1: TMR-E2F1^TD, peptide of the E2F1 transactivation domain (peptide)
peptide: {TMR}-GEGIRDLFDCDFGDLTPLD
notes: also called E2F^TD; source: synthetic peptide, bought: GenScript
Consider B1, for which the Kd was determined as 23 nM in the assay with Rb^P R741C; 24 nM in the assay with Rb^P T620M; 33 nM with Rb^P S648T; 365 nM with Rb^P S474R; 9280 nM with Rb^P S534R.

B2: TMR-E7^LxCxE, LxCxE peptide of the E7 oncoprotein from HPV (peptide)
peptide: DLYCYEQLN
modifications: also: TMR label, position not given here
notes: source: synthetic peptide, bought: GenScript
On to B2, for which the Kd amounted to 14 nM with Rb^P R741C; 6 nM in the assay with Rb^P T620M; 6 nM in the assay with Rb^P S648T; 5 nM in the assay with Rb^P S474R; 4 nM with Rb^P S534R.

Source of the values: PMC11931385, “Structural and functional analysis of cancer-associated missense variants in the retinoblastoma protein pocket domain” (The Journal of Biological Chemistry, 2025).
